Experimental data: patent US7138236B1, “Interactions of ATM, ATR or DAN-PK with p53” (Kudos Pharmaceuticals Limited, priority 1997, dated 2006)
Square brackets hold non-standard residues; d marks the D form. pT = C[C@@H](OP(=O)(O)O)[C@H](N)C(=O)O

Target: Mdm-2 (Homo sapiens, UniProt Q00987)
Test: Mdm-2 binding of p53-derived peptides by ELISA analysis
Conditions: peptides containing p53 residues 11 to 25, unphosphorylated or phosphorylated on Ser15 and/or Thr18
Description: To test whether phosphorylation on Ser15 or Thr18 of p53 affects its interaction with Mdm-2, phosphorylated and unphosphorylated p53-derived peptides were generated and were assessed for Mdm-2 binding by ELISA analysis. The four peptides used contained p53 residues 11 to 25 (in the sequence (SEQ ID NO:11) NH2-SGSGEPPLSOETFSDLWKL-COOH; where the underlined sequence is that derived from p53) that were unphosphorylated (1); phosphorylated on residue equivalent to p53 residue Ser15(2); phosphorylated on residue equivalent to p53 residue Thr18(3); or phosphorylated on two residues, equivalent to p53 residue Ser15 and Thr18(4). […] We therefore conclude that phosphorylation on Thr18 of p53 has a dramatic effect on its interaction with […] and that phosphorylation of this site is likely to play a key role in regulating p53 responses in vivo.

Mdm-2, sequence (Q00987 whole entry, species assumed): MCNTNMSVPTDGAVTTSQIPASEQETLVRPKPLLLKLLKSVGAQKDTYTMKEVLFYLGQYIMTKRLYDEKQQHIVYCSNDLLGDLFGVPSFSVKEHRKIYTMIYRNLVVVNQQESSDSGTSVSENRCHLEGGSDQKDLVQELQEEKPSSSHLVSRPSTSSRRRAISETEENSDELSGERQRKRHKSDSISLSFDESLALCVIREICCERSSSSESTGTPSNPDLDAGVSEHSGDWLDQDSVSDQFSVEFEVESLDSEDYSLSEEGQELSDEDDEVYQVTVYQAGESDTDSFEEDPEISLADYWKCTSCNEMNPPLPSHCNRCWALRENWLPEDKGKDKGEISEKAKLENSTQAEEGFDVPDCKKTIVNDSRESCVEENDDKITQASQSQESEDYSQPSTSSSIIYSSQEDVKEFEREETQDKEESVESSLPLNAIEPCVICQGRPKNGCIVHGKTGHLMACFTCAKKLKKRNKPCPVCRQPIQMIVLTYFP

Substance	Mdm-2 binding of p53-derived peptides
NH2-SGSGEPPLSOETFSDLWKL-COOH [peptide 1] (H-SGSGEPPLSQETFSDLWKL-OH; UniProt P04637 11-25, looked up, fragment) [peptide containing p53 residues 11 to 25, unphosphorylated]	occurred effectively
NH2-SGSGEPPLSOETFSDLWKL-COOH [compound 4]	inhibited dramatically
NH2-SGSGEPPLSOETFSDLWKL-COOH [3] (H-SGSGEPPLSQE[pT]FSDLWKL-OH; SMILES CC(C)C[C@H](NC(=O)[C@H](CCCCN)NC(=O)[C@H](Cc1c[nH]c2ccccc12)NC(=O)[C@H](CC(C)C)NC(=O)[C@H](CC(=O)O)NC(=O)[C@H](CO)NC(=O)[C@H](Cc1ccccc1)NC(=O)[C@@H](NC(=O)[C@H](CCC(=O)O)NC(=O)[C@H](CCC(N)=O)NC(=O)[C@H](CO)NC(=O)[C@H](CC(C)C)NC(=O)[C@@H]1CCCN1C(=O)[C@@H]1CCCN1C(=O)[C@H](CCC(=O)O)NC(=O)CNC(=O)[C@H](CO)NC(=O)CNC(=O)[C@@H](N)CO)[C@@H](C)OP(=O)(O)O)C(=O)O; UniProt P04637 11-25, looked up, fragment) [compound 3, peptide containing p53 residues 11 to 25, phosphorylated on residue equivalent to Thr18]	inhibited dramatically
NH2-SGSGEPPLSOETFSDLWKL-COOH [peptide 2] (EPPLSQETFSDLWKL; phospho-Ser15; N-terminal SGSG linker; UniProt P04637 11-25, looked up, fragment) [peptide containing p53 residues 11 to 25, phosphorylated on residue equivalent to Ser15]	only impaired slightly
